Reference: PMC3548456

Biological target: CI-MPR domains 10-13, receptor construct 1288 (wild-type IGF-II binding domain) (human) (UniProt P11717)
Experiment: SPR

Sequence of CI-MPR domains 10-13, receptor construct 1288 (wild-type IGF-II binding domain) (human) (P11717 1363-1988): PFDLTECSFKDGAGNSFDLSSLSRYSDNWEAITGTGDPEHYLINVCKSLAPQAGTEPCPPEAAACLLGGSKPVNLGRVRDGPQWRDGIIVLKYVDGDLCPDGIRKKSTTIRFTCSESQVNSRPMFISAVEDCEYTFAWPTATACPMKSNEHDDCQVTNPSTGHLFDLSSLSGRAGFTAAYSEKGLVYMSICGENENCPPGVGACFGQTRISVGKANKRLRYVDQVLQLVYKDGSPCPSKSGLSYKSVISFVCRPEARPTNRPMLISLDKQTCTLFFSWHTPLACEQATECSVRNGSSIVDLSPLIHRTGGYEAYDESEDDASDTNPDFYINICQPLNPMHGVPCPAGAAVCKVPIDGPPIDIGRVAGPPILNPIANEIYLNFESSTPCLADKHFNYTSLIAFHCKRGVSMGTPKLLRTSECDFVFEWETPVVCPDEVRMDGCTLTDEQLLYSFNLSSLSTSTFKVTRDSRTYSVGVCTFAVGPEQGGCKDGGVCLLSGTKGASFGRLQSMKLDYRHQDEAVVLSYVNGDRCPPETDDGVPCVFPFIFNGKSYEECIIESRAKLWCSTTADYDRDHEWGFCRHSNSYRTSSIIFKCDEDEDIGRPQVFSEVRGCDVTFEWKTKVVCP

Kd [nM] | koff [s⁻¹] | Substance
21 | 0.0058 | GILT-tagged GAA (BMN 701) (from UniProt P01344 32-91; P10253 70-952) (enzyme)
8.8 | 0.0034 | full-length recombinant IGF-II (ligand)
